Reference: patent publication US20150132821, “Systems and Methods for Improving Nuclease Specificity and Activity” (Georgia Tech Research Corporation, published 2015)

Legend:
[1] = tested on: S-11 NK-TALEN (synthetic); assay: cell_activity; details: monomer SSA assay
[2] = tested on: S-23 NK-TALEN (synthetic); assay: cell_activity; details: monomer SSA assay
[3] = tested on: S-36 NK-TALEN (synthetic); assay: cell_activity; details: monomer SSA assay
[4] = tested on: S-34 NK-TALEN (synthetic); assay: cell_activity; details: monomer SSA assay
[5] = tested on: S-32 NK-TALEN (synthetic); assay: cell_activity; details: monomer SSA assay
[6] = tested on: S-30 NK-TALEN (synthetic); assay: cell_activity; details: monomer SSA assay
[7] = tested on: S-28 NK-TALEN (synthetic); assay: cell_activity; details: monomer SSA assay
[8] = tested on: S-26 NK-TALEN (synthetic); assay: cell_activity; details: monomer SSA assay
[9] = tested on: S-40 NK-TALEN (synthetic); assay: cell_activity; details: monomer SSA assay
[10] = tested on: S-41 NK-TALEN (synthetic); assay: cell_activity; details: monomer SSA assay
[11] = tested on: S-03 NK-TALEN (synthetic); assay: cell_activity; details: monomer SSA assay
[12] = tested on: S-04 NK-TALEN (synthetic); assay: cell_activity; details: monomer SSA assay
[13] = tested on: S-08 NK-TALEN (synthetic); assay: cell_activity; details: monomer SSA assay
[14] = tested on: S-06 NK-TALEN (synthetic); assay: cell_activity; details: monomer SSA assay
[15] = tested on: S-24 NK-TALEN (synthetic); assay: cell_activity; details: monomer SSA assay
[16] = tested on: S-22 NK-TALEN (synthetic); assay: cell_activity; details: monomer SSA assay
[17] = tested on: S-15 NK-TALEN (synthetic); assay: cell_activity; details: monomer SSA assay
[18] = tested on: S-38 NK-TALEN (synthetic); assay: cell_activity; details: monomer SSA assay
[19] = tested on: S-25 NK-TALEN (synthetic); assay: cell_activity; details: monomer SSA assay
[20] = tested on: S-16 NK-TALEN (synthetic); assay: cell_activity; details: monomer SSA assay
[21] = tested on: S-17 NK-TALEN (synthetic); assay: cell_activity; details: monomer SSA assay
[22] = tested on: S-18 NK-TALEN (synthetic); assay: cell_activity; details: monomer SSA assay
[23] = tested on: S-19 NK-TALEN (synthetic); assay: cell_activity; details: monomer SSA assay
[24] = tested on: S-20 NK-TALEN (synthetic); assay: cell_activity; details: monomer SSA assay
[25] = tested on: S-21 NK-TALEN (synthetic); assay: cell_activity; details: monomer SSA assay
[26] = tested on: S-13 NK-TALEN (synthetic); assay: cell_activity; details: monomer SSA assay
[27] = tested on: S-09 NK-TALEN (synthetic); assay: cell_activity; details: monomer SSA assay
[28] = tested on: S-37 NK-TALEN (synthetic); assay: cell_activity; details: monomer SSA assay
[29] = tested on: S-35 NK-TALEN (synthetic); assay: cell_activity; details: monomer SSA assay
[30] = tested on: S-33 NK-TALEN (synthetic); assay: cell_activity; details: monomer SSA assay
[31] = tested on: S-31 NK-TALEN (synthetic); assay: cell_activity; details: monomer SSA assay
[32] = tested on: S-29 NK-TALEN (synthetic); assay: cell_activity; details: monomer SSA assay
[33] = tested on: S-27 NK-TALEN (synthetic); assay: cell_activity; details: monomer SSA assay
[34] = tested on: S-42 NK-TALEN (synthetic); assay: cell_activity; details: monomer SSA assay
[35] = tested on: S-43 NK-TALEN (synthetic); assay: cell_activity; details: monomer SSA assay
[36] = tested on: S-44 NK-TALEN (synthetic); assay: cell_activity; details: monomer SSA assay
[37] = tested on: S-10 NK-TALEN (synthetic); assay: cell_activity; details: monomer SSA assay
[38] = tested on: S-39 NK-TALEN (synthetic); assay: cell_activity; details: monomer SSA assay
[39] = tested on: S-12 NK-TALEN (synthetic); assay: cell_activity; details: monomer SSA assay
[40] = biological target: T1, S-05 (S5) NK-TALEN (synthetic); assay: cell_activity; monomer SSA assay; details: tags: 3xFLAG, NLS, FokI
T1 chain: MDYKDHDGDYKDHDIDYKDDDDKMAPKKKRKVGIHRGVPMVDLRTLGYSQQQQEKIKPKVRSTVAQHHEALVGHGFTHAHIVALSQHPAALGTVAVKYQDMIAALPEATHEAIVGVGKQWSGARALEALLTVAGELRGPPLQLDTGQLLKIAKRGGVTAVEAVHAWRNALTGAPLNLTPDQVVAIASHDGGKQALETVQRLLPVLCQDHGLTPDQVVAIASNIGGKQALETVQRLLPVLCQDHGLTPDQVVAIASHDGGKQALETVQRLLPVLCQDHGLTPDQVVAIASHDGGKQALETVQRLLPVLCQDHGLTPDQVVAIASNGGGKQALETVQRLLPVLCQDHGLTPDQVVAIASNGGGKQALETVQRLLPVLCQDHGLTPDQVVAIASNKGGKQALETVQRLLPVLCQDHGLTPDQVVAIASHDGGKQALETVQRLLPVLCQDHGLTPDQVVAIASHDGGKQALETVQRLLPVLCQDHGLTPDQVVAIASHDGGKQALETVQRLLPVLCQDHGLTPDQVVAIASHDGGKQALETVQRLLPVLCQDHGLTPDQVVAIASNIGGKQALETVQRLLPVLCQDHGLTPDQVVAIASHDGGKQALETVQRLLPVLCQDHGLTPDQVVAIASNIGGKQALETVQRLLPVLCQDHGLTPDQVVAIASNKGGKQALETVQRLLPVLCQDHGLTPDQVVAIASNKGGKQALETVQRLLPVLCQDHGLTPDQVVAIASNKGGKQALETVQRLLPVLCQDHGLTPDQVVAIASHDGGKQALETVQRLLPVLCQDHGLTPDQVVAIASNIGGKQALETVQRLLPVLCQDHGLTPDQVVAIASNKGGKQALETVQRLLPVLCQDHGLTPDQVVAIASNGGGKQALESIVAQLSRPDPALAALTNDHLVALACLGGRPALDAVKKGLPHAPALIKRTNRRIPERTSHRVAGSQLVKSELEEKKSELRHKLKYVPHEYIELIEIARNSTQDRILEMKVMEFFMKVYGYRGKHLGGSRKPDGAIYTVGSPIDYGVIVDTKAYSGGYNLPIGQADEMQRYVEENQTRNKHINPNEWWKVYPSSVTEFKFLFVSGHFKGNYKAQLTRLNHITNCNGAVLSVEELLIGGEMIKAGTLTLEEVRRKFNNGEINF
Description: HEK293T cells (ATCC) were cultured in Dulbecco's Modified Eagle Medium (Sigma) supplemented with 10% FBS and 2 mM L-Glutamine. Cells were seeded 80,000 per well of a 24-well plate. After 4 h, cells were transfected with 200 ng of the TALEN plasmid (or 100 ng of each TALEN for hetero-dimeric pairs) and 10 ng of the corresponding SSA reporter plasmid using calcium phosphate transfection. Three control transfections were included: 1) 200 ng of an empty TALEN backbone and 10 ng of an SSA reporter plasmid, 2) 200 ng of an empty TALEN backbone and 10 ng of a pEGFP plasmid, and 3) 100 ng of each GFP-ZFN and 10 ng of an SSA reporter plasmid. Cells were harvested 48 h after transfection. The percentages of pEGFP-transfected samples expressing GFP were determined using an Accuri C6 flow cytometer, as an indication of transfection efficiency. Genomic DNA was isolated using QuickExtract DNA extraction solution (Epicentre) as described20. Sample were PCR amplified for 35 cycles (95° C., 30 s; 60° C., 30 s; 72° C., 60 s) in a 50 μl reaction that contains 2 μl of the extracted DNA, 2.5 μl of each 10 μM target region amplification primer (SSA-Cell-F4, 5′-[…] (SEQ ID NO: 183); SSA-Cell-R4, 5′-[…] (SEQ ID NO: 184)), and 25 μl of GoTaq green master mix (Promega). PCR reactions were then separated on 2% agarose gels and the percentages of SSA-repaired products were quantified using ImageJ.

ACAAGACAGGTTTAAGGAGACCAAT (double strand) [S-11 half-site]
activity [1]: 1.5 % SSA

AGACCACCAGCAGCCT (double strand) [S-23 half-site]
activity [2]: 11.6 % SSA

ATCAGAAACCCAAGAGT (double strand) [S-36 half-site]
activity [3]: 7.3 % SSA

ATCAGAAACCCAAGAGTCT (double strand) [S-34 half-site]
activity [4]: 14.8 % SSA

ATCAGAAACCCAAGAGTCTT (double strand) [S-32 half-site]
activity [5]: 10.5 % SSA

ATCAGAAACCCAAGAGTCTTCT (double strand) [S-30 half-site]
activity [6]: 17.9 % SSA

ATCAGAAACCCAAGAGTCTTCTCT (double strand) [S-28 half-site]
activity [7]: 15.3 % SSA

ATCAGAAACCCAAGAGTCTTCTCTGT (double strand) [S-26 half-site]
activity [8]: 11.7 % SSA

ATTGCTTACATTTGCTTCTGACACAACT (double strand) [S-40 half-site]
activity [9]: 2.5 % SSA

ATTGCTTACATTTGCTTCTGACACAACTGT (double strand) [S-41 half-site]
activity [10]: 3.1 % SSA

CAAACAGACACCATGGTGCACCT (double strand) [S-03 half-site]
activity [11]: 4.9 % SSA

CAAACAGACACCATGGTGCACCTGA (double strand) [S-04 half-site]
activity [12]: 2.5 % SSA

CACCTTGCCCCACAGGGCAGTA (double strand) [S-08 half-site]
activity [13]: 1.9 % SSA

CACCTTGCCCCACAGGGCAGTAA (double strand) [S-06 half-site]
activity [14]: 5.3 % SSA

CCAAGGGTAGACCACCAGCAGCCT (double strand) [S-24 half-site]
activity [15]: 1.3 % SSA

CCACGTTCACCTTGCCCCACAGGGCAGT (double strand) [S-22 half-site]
activity [16]: 4.5 % SSA

CCTGTGGAGAAGTCTGCCGT (double strand) [S-15 half-site]
activity [17]: 3 % SSA

CTATTGCTTACATTTGCTTCTGACACAACT (double strand) [S-38 half-site]
activity [18]: 3.7 % SSA

CTCCACAGGAGTCAGGTGCACCAT (double strand) [S-25 half-site]
activity [19]: 11.1 % SSA

CTGATAGGCACTGACTCT (double strand) [S-16 half-site]
activity [20]: 30.9 % SSA

CTGATAGGCACTGACTCTCT (double strand) [S-17 half-site]
activity [21]: 29.2 % SSA

CTGATAGGCACTGACTCTCTCT (double strand) [S-18 half-site]
activity [22]: 26.2 % SSA

CTGATAGGCACTGACTCTCTCTGCCT (double strand) [S-19 half-site]
activity [23]: 17.2 % SSA

CTGATAGGCACTGACTCTCTCTGCCTAT (double strand) [S-20 half-site]
activity [24]: 16.6 % SSA

CTGATAGGCACTGACTCTCTCTGCCTATT (double strand) [S-21 half-site]
activity [25]: 21.8 % SSA

CTTGGGTTTCTGATAGGCACTGACTCTCT (double strand) [S-13 half-site]
activity [26]: 13 % SSA

GCCCCACAGGGCAGTAACGGCAGA (double strand) [S-09 half-site]
activity [27]: 6.2 % SSA

GCCTATCAGAAACCCAAGAGT (double strand) [S-37 half-site]
activity [28]: 4.8 % SSA

GCCTATCAGAAACCCAAGAGTCT (double strand) [S-35 half-site]
activity [29]: 8.1 % SSA

GCCTATCAGAAACCCAAGAGTCTT (double strand) [S-33 half-site]
activity [30]: 4.9 % SSA

GCCTATCAGAAACCCAAGAGTCTTCT (double strand) [S-31 half-site]
activity [31]: 9.7 % SSA

GCCTATCAGAAACCCAAGAGTCTTCTCT (double strand) [S-29 half-site]
activity [32]: 5.3 % SSA

GCCTATCAGAAACCCAAGAGTCTTCTCTGT (double strand) [S-27 half-site]
activity [33]: 3.5 % SSA

GCTTACATTTGCTTCTGACACAACT (double strand) [S-42 half-site]
activity [34]: 4.3 % SSA

GCTTACATTTGCTTCTGACACAACTGT (double strand) [S-43 half-site]
activity [35]: 4.1 % SSA

GCTTACATTTGCTTCTGACACAACTGTGT (double strand) [S-44 half-site]
activity [36]: 3.2 % SSA

GCTTACATTTGCTTCTGACACAACTGTGTT (double strand) [S-10 half-site]
activity [37]: 8.4 % SSA

GGGTTTCTGATAGGCACTGACTCTCTCT (double strand) [S-39 half-site]
activity [38]: 5 % SSA

TGCCCCACAGGGCAGT (double strand) [S-12 half-site]
activity [39]: 11 % SSA

B1: S-05 half-site (dsDNA)
DNA 1: CACCTTGCCCCACAGGGCAGT
DNA 2: ACTGCCCTGTGGGGCAAGGTG
activity [40]: 6.1 % SSA
